According to a protein production outcome set (Wang et al. 2014):

Test: label from the status in PepcDB records

**Q.** With “MLAVIEKQGNEYVVQFERYFSYSIEEVWSVLTENSKLKKWMSNLQIESLKTGGIIKFDMMDGSFINIDILECQVNAVLEFTWDKDCVRFEIHKEENDTLLLLKEYIHELTDHTPKDIAGWHICLDLFSSVLEGKEKEFSKDEWKQWFEIYKDKVLELRA” as the sequence, how does the protein production read?
**A.** failed

**Q.** With “MLAVKIFDRLPLALVITNASHSVLYANDAFKLMVCLQPDDILAFNPEQFFSPSEPHEIASLFNHLSEGKMWQGELVGLRNNGETFYLDLTVTVFRESHSADLGFAWLFSDVSERKKAAQLEHHHHHH” as the sequence, how does the protein production read?
**A.** not failed

**Q.** With “MLCCLRIENFALIDHLELDLQAGLMVLTGETGAGKSIILDALDLALGGKATARLIRAKNDQGDATGERAFIEATFSLTPSIKQWLQSQDIDLLEDETVICSRELSLTRTGLRSRSRVNGIILNQGLMAELRAQLLEITAQGQTVELLIPERQRILLDSYGGSQVQQQRQLVNLAYQTYLKAKQLLESRRTSEQERLQRLDLLQYQLQELRDAHLEDSEELETLQQEGDRLSHVVELQQLSYQAHQILYQNDDPETPAVADLLGEAENLLKEMVDYDTQLNGILD” as the sequence, how does the protein production read?
**A.** failed

**Q.** With “MLCLHTSVHCYENPSVIFSLIYIIICKYMYYNILSATTIFILYSQIVGQNGDDIIKYYHSFLNYVIIFYMSRH” as the sequence, how does the protein production read?
**A.** failed

**Q.** With “MLDDLDLFVAIVDAGSLSAAAKRMAMPAATLTRRLQALEAELGCKLLNRSARRLVPTNEGWQYYEQCKPLLAALRQAADSLDATLNRVEGVVRAMAPVSMANSLLLPVWQRLLQRHPAVRLELVLSNGTEDVWAMGGDLAIRVGPQPDSQLNQRKLGQVSAVLAAAPSYLEARGRPQAFEQLAGHDLLLTTPLQNWKLHRVDGDEERSLPDGARLLVNDMLLGVRMAEAGCGVVLCPLSQCHRELADGRLERILQDWWIPPRPVYAVWPQRRAMPARVRALLDILLEFAAEEPLLRS” as the sequence, how does the protein production read?
**A.** failed

**Q.** With “MLDLNEFLTRKMKIDVLLKEHGWDVGDRSKVVLEVDTIQSDIKKQDYRQVNETRRNDAESKYADYLLLDSTGKPLAIIEAKRTTKDPILGQKQAEEYADDIKTQTGEEVFIFLSNGYQIWLWDRERYGPRQIKGFYSPEDLERLLYQRKYSERETEIDIDGNIVDRAKSVEVATRVVEHIHKGHRKALIVMATGTGKTRVAMAIIDQLMRESRVQRVLFLTDRKALRKQAYEKGYLRYFPEETKEIIHSGNYNSNCRLYVSTIQTFQEIYNQKDRNGKYRISPGAFDLIFSDEAHRSIYSKWKGIFTYLDAIQIGLTATPADMVDRDTFRFFECHDDIPTALYSYEDAVRDGVLCDFRKNISGARTYFQIEGLKPENLTEGEREELIKKGIDPDDINFEGTELEKKVAVKGTSEAIVREFMENCLTDQAGTLPAKTIFFAISKLHAKRLWEAFEKLYPEHKGKLARIIVSEDSRAQQLIKDFEEKPFPRIAISVDMMDTGIDVPEVCNLVFAKPVFSKIKFWQMLGRGTRADGACEHREWLPDGKKEYFKVFDFWNNFEYWNMNPEGAKNESAEAITNRIFLTRLKQLGELMQRRDPASEKAAEKVKAKIISDIESLPRDSVNVREHLQDMEKALSPKLWDNIAIDPVEFLQKKIMPLMKFKPDVNLKEATFTLRCEKLAYALLENDKAEIDRLKTSIAEMVDRLPRTLDSVRAREALMDNVLSRSFWETVSFEDVQLLLSDLAPLMPYMAKEPRETIVIDMSDIIAERKKWEISDGNDPSYVEAYRREVEARIKALAETHPAVRKIKNNEPLTDYDLEQLEETLLNADLTPDNPKLSSHASLSDLYPSRQASLVDFIRQVLGLYSSPSPDALIKDAFQTYIIGNNKHYSSDQLNFILTLQTVFLKKKHIEYSTLWLPPFTNFGTTAPFPMFTQEELNSFIDICKGVEKDIFM” as the sequence, how does the protein production read?
**A.** not failed

**Q.** Which protein production does the source give for “MLDLVNQLELDSQMKQFKLVSQMTRQDVIILDEPGYLPFSQKRGALLFHLMSQLHENTSVIITTNLEFSEWGTLFTEAKMTNALLDRLIHHCHMLETGNESYRFKHRNLEHHHHHH” here?
**A.** failed

**Q.** For “MLDNRPIGVFDSGIGGLTIVKNLMSILPNEDIIYFGDIARIPYGTKSRATIQKFAAQTAKFLIDQEVKAIIIACNTISAIAKDIVQEIAKAIPVIDVITAGVSLVDNLNTVGVIATPATINSNAYALQIHKKNPNIEVYSNPCGLFVSMIEEGFVSGHIVELVAKEYLSYFHDKNIQALILGCTHYPIIKESIAKILDVKLIDPSLQASKMLYSLLFENKLLNTTKSNPEYRFYVTDIPLKFRSVGEMFLQTEMQHLEIVSLDSY”, which protein production is on record?
**A.** not failed

**Q.** Which protein production does the source give for “MLDPATRTPPSLPDFIIGGAMKSATSSLHHLLSNHEQVYLPDGETHFFCMDDPVQHSGFFFPARAPSQRAPDYDRHGETNLDWYRQLFEPAHPDQCVGDYSSTYLPAPDAPLRIKRLLPDVKLLFMLRNPVDRTYSHYWHRVKTGRAVHGFEYELQHGPSTLLLRSFYKPQLERYFDFFPEDQVKVILFERFVDHTQAVVDEVCSFLGLETAVDVAGVDAHQNRSPVPRWPGLQLLLNYCTTGIETRSEGQLPYPAQPQSSYALQGLVHHLRQLNLTPRRPPPMNDSVRACLEQIFARKNQDLGTLLGVDLTSYWPFLRKQHDEPAETAA” here?
**A.** failed

**Q.** With “MLDQKPKVSVIIPTYNRAHLIPRAIKSVLNQTYLDIEIIIVDDSSTDNTEEIVKDFKDRRLKYIRHNINKGASAARNTGIRESRGKYIAFQDSDDEWFSNKLEKQIEAFADAPPEVGIVYSGFYRIEANRKLYLPSDQLSLKEGNIHNELLKGNFVGTPTVLMKKECFRNQRYFNESLPALEDWELWIELSKYYTFRYIKKPLLCSYSTPNSINLNENNMLKAHEIILLTHLDDFSKNKKNLSEHYYDIGTGLCSIGNFNNGKNYLIKSLKAYCLNFKTISVLFILLFGHNIYYKFRDLHRKIGHRT” as the sequence, how does the protein production read?
**A.** failed

**Q.** With “MLDRVIYSLIQTENKSVVNELFFRIAEGEDSFAELARKYSQGAEADRGGIIGPVELGSITPNFAQLLYTSQVGVVQPPVAFGNTWVIVRVEKLIPAQLEHHHHHH” as the sequence, how does the protein production read?
**A.** failed

**Q.** For “MLEAEVVALKDLIEVAGAVVSTLDLDTVLRHILTSAMRFAETPAGSIALYDGYRNDLTLHAHEGLTPEFVKTERWSVQPGGLTEQVLTRGEILFVNDTADTSFFHNPTALNEGIRSLICVPLMMQNRIVGILYLDDFVPRDFDKERMKLLSVLASFAAMAIDNAQLHARTRLMAITDSLTGLYNHRYFQQIFSRELNRAKRYEKPLAIIMLDVDDFKRFNDTYGHPHGDKVLAAMGDFLGEALRSSDFAFRYGGEEFIVLLPETEFDSALQVAERLRELVERRSLDVLKGLAPQGVTVSVGVASFPRDGESRGDMLKRVDDLLYRAKEFGKNRVYSRREDEP”, which protein production is on record?
**A.** failed

**Q.** For “MLEDHHLYKAAIEHSPIGIGLCAPKGRFLDVNRALCALTGHEAQALRARDLFDLCHPDYAARTRERVEALLAGEQDALSLETRFVRPDGSTVWVQADLALARAEAGDGQDGHLIVQVQDVTARRLALESLQASEQRLAYVLDGAGLGTFDWSMRVRHVSFNRRTAEMLGYAHDELSTDPQDWFAMVHPQDAVLSVRRIYRHLRGDADSFEVEQRLRNQEGQWVWMSARGRVTQRDALGIAVRVSGTLQDVTRRRAMLDQAHHLALHDPLTDLPNARLLRDRLFVAIQAARRAGSLVAVVFVDLDRFKPVNDEYGHGVGDLVLKATAMRLRSGLRASDTVARLGGDEFVAVLTHCQTRDDVEQTVERLIEQLQAPFRVEGHVLSMGVSAGVALYPSDGRDAQTLIRCADAAMYEVKRAGGNDFGFHASLNYERLMSMRQRGPDPDGGADGR”, which protein production is on record?
**A.** failed

**Q.** With “MLEGAKFNVLAVGNHHNNDNNYYAFTQEFYQKLNEGSNMSMESMQTSNAGGSVSMSVDNSSVGSSDALIGHPGLKPVRHYSLSVGQSVFRPGRVTHALNDDALAQALMDTRYPTEGLTNYDEWTIDLRKLNMGPAFAQGAFGKLYKGTYNGEDVAIKILERPENSPEKAQFMEQQFQQEVSMLANLKHPNIVRFIGACRKPMVWCIVTEYAKGGSVRQFLTRRQNRAVPLKLAVKQALDVARGMAYVHGRNFIHRDLKSDNLLISADKSIKIADFGVARIEVQTEGMTPETGTYRWMAPEMIQHRAYNQKVDVYSFGIVLWELITGLLPFQNMTAVQAAFAVVNRGVRPTVPNDCLPVLSDIMTRCWDANPEVRPCFVEVVKLLEAAETEIMTTARKARFRCCLSQPMTID” as the sequence, how does the protein production read?
**A.** failed

**Q.** For “MLEHAAGQPWIYPVLLVFFFIDGFATILPSETAIVGLSALSLHSGEPNLWILGGTALVGAMAGDNMAYMLGRKIGLTRWKWMRRPKVQKMFAWAQYELDKRGAVLIFTARYIPWGRVAVNYVAGQTGFRHRTFFWLDAFACITWVGYSIGIGLLAGQWVHHNPLLGVGIAVAFAVVLGIVVDHALRWWHKYLEKKDVAREAAASSEVKVAEPADLSQKAVAGADLSKPAG”, which protein production is on record?
**A.** failed

**Q.** Which protein production does the source give for “MLEILMSLTAAICWAFNGIAYRKGVKDVSAFTANFHRTLFATVYFLPLALRDFPGVVIDLQTALVLVISAMLSFYIGDLSYFASLKRSPVSIALPASSTYPVYVVLLSTVIYGAELSLNALISAILVFVAVYIIYGSGEKGETSGLFYALLAAFSWALAILTLDFLTDRLPVSIVAFVRLLLCLILLSFTAKKDELSTEIRLFFRSVRGIFLLLGIMLFITAIKVSSSWNVVQPSSTSPVFAAIFGAIFLKERISFRLVAGIFVIILAILLLLLPPLQ” here?
**A.** failed

**Q.** Which protein production does the source give for “MLEIVAAIFIVLLGSGICSCAEAALFSVPLVKVRQLSQSNNPSAIALQAIRHRMNRPIGTIVVLNNIFNIVGSITIGALATKHLQDAWMGVFSGILTLLIIVFGEIIPKTLGERYATNIALLIAIPVRFLTLIFTPLVWLIEQITNPFTHGKRVPSTNEAEIKFLATLGYKEGVIEGDEEQMIQRVFQLNDLMAVDLMTPRVIITYLLGELTLAECQQDIIQSQHTRILIVDEYIDEVLGIALKQDLLTALIQGEGYKTIAELARPAQFVPEGMRADKLLKQFQEKREHLMVVIDEYGGVAGVITLEDVVEVLTGEIVDETDKNIDLQEIARKKRQALLKQRGVAP” here?
**A.** failed

**Q.** Which protein production does the source give for “MLEKIFNSLCSLVPKRYNMKEETNIVGIYNEHYLLSEKSNLVGALKLEGISYLSLDDKEIAQKFNERILALNEIVDGVHFKIVVKRRKIFMHHEYTQEEISNPFALEVINLWEQGVEDVYQNFYYLIFETKNDSIKGYLERFKKKITTNELENIQENNRQDEVKYQENYFIGFDNFNLLDKSKILYSIINNVKNMLSGLFVEKIDANSLLNFYAEYINGVPSEYTFARGRLHDGMINSDVHFKKDFFTHIHNGKEIFKRFISIKTYDIDKIVSTALSSVLHLSLEFDVILNIDNIPKAKAEKRIETKRKRANKSIRVEIDELNDMIKTDRVLMQEISLNILVHAKTKTDLDSACIEITNLLKQKGIVSTQESIGMLPMFFSFFPNRNRLNFRKRLLSSQNIASLIILEKQNCGFSRNSWGDRHLTIFRNQDKSPYLFNFHAYEAKRKNDMVSGHTIIFGGTGAGKTTLIEFLITNCFKYEDLSILALDRNNGMRVMTEFLDGQYNDSNDFYINPFSLKDTSANCTFLVSWLAFMLNIDEDTKDEKEKKTLSALSKTIRVCYNNITKQGGAIFKLRDFKDTLEIDYLDSKDILEKESSKDLYKHSTDCLDFAKKLSVIDMDALSSSKKDFNLAVLYLFYKVMNRAKLENKPFYIFIDEAKSVIENPIMLAKIKDTLAQARKLNGVLTLAFQDINQLDGVEGAKSIIENAAQVILYPTNNFEKLESYGILLSPIEKSFLNKTPLNARQVLVKNLLTQSSVFLEINLEKLNSTSKKFLRAYNSSASSVFELETLKKDNPKDYKEIYLTKE” here?
**A.** failed
